Results on one substance are retold here after publication PMC3835790, “Statistical Experimental Design Guided Optimization of a One-Pot Biphasic Multienzyme Total Synthesis of Amorpha-4,11-diene” (PLoS ONE, 2013).

The series has as its system CC(C)=CCC/C(C)=C/CC/C(C)=C/CO[P@@](=O)(O)OP(=O)(O)O. In words: purified protein. The note with it: 100 mM Tris/HCl pH 7.4, 30°C, substrate not printed in the table row, FPP from the pathway.

Sequence of amorpha-4,11-diene synthase (Ads) (Artemisia annua) (chain, as listed by the source): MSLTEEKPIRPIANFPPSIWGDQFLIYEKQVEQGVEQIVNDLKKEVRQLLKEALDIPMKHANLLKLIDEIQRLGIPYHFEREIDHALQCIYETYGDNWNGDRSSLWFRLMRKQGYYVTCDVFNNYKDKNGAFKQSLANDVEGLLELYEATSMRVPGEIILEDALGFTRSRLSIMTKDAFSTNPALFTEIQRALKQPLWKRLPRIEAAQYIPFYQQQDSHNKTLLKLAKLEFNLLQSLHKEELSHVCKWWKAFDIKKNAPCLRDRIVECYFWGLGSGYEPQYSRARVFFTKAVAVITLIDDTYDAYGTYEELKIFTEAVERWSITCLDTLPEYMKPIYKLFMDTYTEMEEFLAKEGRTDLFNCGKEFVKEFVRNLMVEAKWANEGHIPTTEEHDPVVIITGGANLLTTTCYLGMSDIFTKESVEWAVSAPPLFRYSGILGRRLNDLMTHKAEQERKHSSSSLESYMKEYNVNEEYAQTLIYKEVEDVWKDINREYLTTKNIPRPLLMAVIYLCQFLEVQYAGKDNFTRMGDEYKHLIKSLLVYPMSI

As to “amorpha-4,11-diene synthase (Ads) (Artemisia annua)”, the Km came out at 43.72 ± 10.4 µM and the catalytic constant (kcat) is 0.05 s⁻¹.
